Measurements taken from US20220127585A1 (UNIVERSITY OF SOUTH CAROLINA, published 2022).
Bridges are numbered along the chain shown (N, C = ends). Where no end group is shown, it is not given here. [ ]: non-standard residue; d: D form. The star is where a group is joined. C4 = C-terminal cap: phenethyl group with a meta isopentyloxy group, CC(C)CCOc1cccc(CCN*)c1; NMeR = CN[C@@H](CCCNC(=N)N)C(=O)O; PhAc = O=C(Cc1ccccc1)*

B1: SEQ ID NO: 64 (K-MeR-a-PAE) (peptide)
peptide: K[NMeR][dA]PAE
modifications: also: cyclic, closure not given here
B2: SEQ ID NO: 63 (TRHVNI) with N-Cap N2 and C-Cap C4 (peptide)
peptide: PhAc-TRHVNI-C4
SMILES: CC[C@H](C)[C@H](NC(=O)[C@H](CC(N)=O)NC(=O)[C@@H](NC(=O)[C@H](Cc1c[nH]cn1)NC(=O)[C@H](CCCNC(=N)N)NC(=O)[C@@H](NC(=O)Cc1ccccc1)[C@@H](C)O)C(C)C)C(=O)NCCc1cccc(OCCC(C)C)c1
B3: SEQ ID NO: 48 (KRHVAE) (peptide)
peptide: KRHVAE
modifications: lactam 1-6

What was measured:
B-Raf kinase [1] = target: T1, B-Raf kinase (UniProt P15056 448-723, limits assumed); assay: direct binding affinity (Kd; values in FIG. 14)
T1 sequence (P15056 448-723 limits assumed): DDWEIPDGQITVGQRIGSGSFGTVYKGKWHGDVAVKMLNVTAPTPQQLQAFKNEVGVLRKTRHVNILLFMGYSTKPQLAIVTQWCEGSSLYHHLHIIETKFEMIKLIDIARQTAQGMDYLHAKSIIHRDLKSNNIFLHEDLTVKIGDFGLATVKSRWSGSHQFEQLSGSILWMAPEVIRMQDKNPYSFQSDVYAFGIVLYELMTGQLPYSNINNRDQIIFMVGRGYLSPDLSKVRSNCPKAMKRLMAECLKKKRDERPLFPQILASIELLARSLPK

B-Raf kinase [2] = target: T1, B-Raf kinase; assay: intrinsic tryptophan fluorescence (ITF), column head 'Kd (ITF) (µM)'
Description: Fluorescence intensity was measured with a Hitachi F-2500 Fluorescence Spectrophotometer. A 1.6 mL of protein solution (0.5 μM) was placed in a cuvette and equilibrated at 15° C. for 1 hour. After equilibration, small increments (2-15 μL) of the ligand solution were injected in the cuvette. The experiments were performed in 20 mM HEPES buffer (pH 7.5), 10 mM MgCl2, 30 mM NaCl. […] The slits were set at 10 and 10 nm in the excitation and emission respectively. To determine dilution effect of B-Raf (due to ligand addition) and any fluorescence effect by unbound ligand, a blank sample containing Trp with the same fluorescence signal was titrated with ligand additions as described above. The sample absorbance was kept below 0.1 to minimize the inner filter effect.

B-Raf kinase [3] = target: T1, B-Raf kinase; assay: binding affinity, Table 3 (method not given; the Methods describe fluorescence titration)

Row | Binder | fold increase in direct binding affinity compared to SEQ ID NO: 1 (B-Raf kinase [1]) [fold] | Kd (B-Raf kinase [2]) [nM] | Kd (B-Raf kinase [3]) [nM]
1 | B1 | 225 | 17 | –
2 | B2 | – | 280 | –
3 | B3 | – | – | 300
